Measurements taken from paper PMC10376177.

What was measured:
Test in all cases: native gel or EMSA
[1] = biological target: CthedisKatG W90F (Chaetomium thermophilum var. dissitum)
[2] = biological target: CthedisKatG W90V (Chaetomium thermophilum var. dissitum)
[3] = biological target: CthedisKatG, thermophilic catalase–peroxidase from Chaetomium thermophilum var. dissitum (wild type) (Chaetomium thermophilum var. dissitum)

CthedisKatG W90F (enzyme) showed a stoichiometry N [1] of 2.

Work on CthedisKatG W90V (enzyme) yielded a stoichiometry N [2] of 2.

In the case of “CthedisKatG, thermophilic catalase–peroxidase from Chaetomium thermophilum var. dissitum (wild type) (enzyme)”, the stoichiometry N [3] was 2.
